What follows are sequences tested on Escherichia coli TOP10 (assay: shrunken log2 fold change of peptide-encoding DNA abundance (4.5 h post-induction vs induction); higher = less antimicrobial activity (less host growth inhibition)). Conditions: time post-induction: 4.5 h; library: site-saturation at positions 5, 18, 19, 20.
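Also: peptides expressed intracellularly from a pBAD plasmid library in pooled LB shake-flask culture, induced with 0.3% L-arabinose, DNA abundance read by NGS, three biological replicates, DESeq2 with apeglm shrinkage.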

| Sequence | shrunken log2 fold change |
| --- | --- |
| RRIRNRPPRLPRPRPRPYCMPRP | -0.776 |
| RRIRNRPPRLPRPRPRPYCRPRP | -0.982 |
| RRIRNRPPRLPRPRPRPYDFPRP | 0.0143 |
| RRIRNRPPRLPRPRPRPYDHPRP | -0.219 |
| RRIRNRPPRLPRPRPRPYDLPRP | -0.166 |
| RRIRNRPPRLPRPRPRPYFHPRP | -0.474 |
| RRIRNRPPRLPRPRPRPYFKPRP | -0.363 |
| RRIRNRPPRLPRPRPRPYFMPRP | -1.09 |
| RRIRNRPPRLPRPRPRPYGVPRP | -0.00804 |
| RRIRNRPPRLPRPRPRPYHCPRP | -0.0116 |
| RRIRNRPPRLPRPRPRPYINPRP | -0.801 |
| RRIRNRPPRLPRPRPRPYITPRP | -0.292 |
| RRIRNRPPRLPRPRPRPYIVPRP | -0.314 |
| RRIRNRPPRLPRPRPRPYLLPRP | -0.27 |
| RRIRNRPPRLPRPRPRPYMIPRP | 0.0323 |
| RRIRNRPPRLPRPRPRPYNGPRP | 0.0167 |
| RRIRNRPPRLPRPRPRPYPMPRP | 0.133 |
| RRIRNRPPRLPRPRPRPYSSPRP | -0.027 |
| RRIRNRPPRLPRPRPRPYTPPRP | -0.0563 |
| RRIRNRPPRLPRPRPRPYTTPRP | -0.83 |
| RRIRNRPPRLPRPRPRPYVTPRP | -0.553 |
| RRIRNRPPRLPRPRPRPYWEPRP | -0.293 |
| RRIRNRPPRLPRPRPRPYYWPRP | -0.367 |
| RRIRPRPPRLPRPRPRPAAFPRP | 0.207 |
| RRIRPRPPRLPRPRPRPACKPRP | 0.0686 |

| Sequence | shrunken log2 fold change |
| --- | --- |
| RRIRPRPPRLPRPRPRPADRPRP | 0.408 |
| RRIRPRPPRLPRPRPRPAFQPRP | 0.156 |
| RRIRPRPPRLPRPRPRPAGEPRP | 0.418 |
| RRIRPRPPRLPRPRPRPAHRPRP | 0.384 |
| RRIRPRPPRLPRPRPRPAITPRP | -0.361 |
| RRIRPRPPRLPRPRPRPALGPRP | 0.964 |
| RRIRPRPPRLPRPRPRPALMPRP | 0.31 |
| RRIRPRPPRLPRPRPRPALRPRP | 0.545 |
| RRIRPRPPRLPRPRPRPAMVPRP | 0.844 |
| RRIRPRPPRLPRPRPRPAPNPRP | 1.16 |
| RRIRPRPPRLPRPRPRPAPRPRP | 0.992 |
| RRIRPRPPRLPRPRPRPAPVPRP | 0.409 |
| RRIRPRPPRLPRPRPRPAQEPRP | 0.171 |
| RRIRPRPPRLPRPRPRPAQFPRP | 0.272 |
| RRIRPRPPRLPRPRPRPAQGPRP | 0.156 |
| RRIRPRPPRLPRPRPRPASEPRP | 0.0613 |
| RRIRPRPPRLPRPRPRPATSPRP | 0.358 |
| RRIRPRPPRLPRPRPRPAWEPRP | 0.216 |
| RRIRPRPPRLPRPRPRPAWKPRP | -0.109 |
| RRIRPRPPRLPRPRPRPAYKPRP | -0.302 |
| RRIRPRPPRLPRPRPRPAYWPRP | 0.212 |
| RRIRPRPPRLPRPRPRPCFNPRP | -0.512 |
| RRIRPRPPRLPRPRPRPCGPPRP | 0.189 |
| RRIRPRPPRLPRPRPRPCGRPRP | 0.302 |
| RRIRPRPPRLPRPRPRPCHYPRP | -0.146 |

| Sequence | shrunken log2 fold change |
| --- | --- |
| RRIRPRPPRLPRPRPRPCIAPRP | 0.00774 |
| RRIRPRPPRLPRPRPRPCICPRP | -0.728 |
| RRIRPRPPRLPRPRPRPCNLPRP | -0.593 |
| RRIRPRPPRLPRPRPRPCNYPRP | -0.152 |
| RRIRPRPPRLPRPRPRPCQDPRP | -0.006 |
| RRIRPRPPRLPRPRPRPCQEPRP | -0.0635 |
| RRIRPRPPRLPRPRPRPCRPPRP | -0.168 |
| RRIRPRPPRLPRPRPRPCRTPRP | -0.194 |
| RRIRPRPPRLPRPRPRPCRYPRP | 0.0858 |
| RRIRPRPPRLPRPRPRPCSMPRP | -0.564 |
| RRIRPRPPRLPRPRPRPCVIPRP | -0.222 |
| RRIRPRPPRLPRPRPRPCWIPRP | -0.456 |
| RRIRPRPPRLPRPRPRPCYTPRP | -0.531 |
| RRIRPRPPRLPRPRPRPDAIPRP | 0.148 |
| RRIRPRPPRLPRPRPRPDCQPRP | -0.0657 |
| RRIRPRPPRLPRPRPRPDDCPRP | -0.0649 |
| RRIRPRPPRLPRPRPRPDDHPRP | -0.0314 |
| RRIRPRPPRLPRPRPRPDDRPRP | 0.162 |
| RRIRPRPPRLPRPRPRPDEHPRP | -0.205 |
| RRIRPRPPRLPRPRPRPDEIPRP | -0.144 |
| RRIRPRPPRLPRPRPRPDEMPRP | 0.377 |
| RRIRPRPPRLPRPRPRPDEQPRP | 0.318 |
| RRIRPRPPRLPRPRPRPDGFPRP | -0.0011 |
| RRIRPRPPRLPRPRPRPDGHPRP | 0.0433 |
| RRIRPRPPRLPRPRPRPDGIPRP | 0.0121 |

| Sequence | shrunken log2 fold change |
| --- | --- |
| RRIRPRPPRLPRPRPRPDHNPRP | -0.675 |
| RRIRPRPPRLPRPRPRPDIFPRP | 0.0196 |
| RRIRPRPPRLPRPRPRPDIGPRP | -0.0448 |
| RRIRPRPPRLPRPRPRPDIMPRP | -0.0454 |
| RRIRPRPPRLPRPRPRPDKCPRP | -0.432 |
| RRIRPRPPRLPRPRPRPDKTPRP | 0.015 |
| RRIRPRPPRLPRPRPRPDLIPRP | -0.036 |
| RRIRPRPPRLPRPRPRPDMGPRP | -0.407 |
| RRIRPRPPRLPRPRPRPDPVPRP | 0.214 |
| RRIRPRPPRLPRPRPRPDQGPRP | -0.0018 |
| RRIRPRPPRLPRPRPRPDSRPRP | 0.0317 |
| RRIRPRPPRLPRPRPRPDTAPRP | -0.0311 |
| RRIRPRPPRLPRPRPRPDTHPRP | -0.119 |
| RRIRPRPPRLPRPRPRPEAMPRP | 0.0142 |
| RRIRPRPPRLPRPRPRPEAWPRP | -0.0196 |
| RRIRPRPPRLPRPRPRPECGPRP | 0.525 |
| RRIRPRPPRLPRPRPRPEDHPRP | -0.131 |
| RRIRPRPPRLPRPRPRPEEEPRP | 0.163 |
| RRIRPRPPRLPRPRPRPEFNPRP | 0.0717 |
| RRIRPRPPRLPRPRPRPEGLPRP | 0.491 |
| RRIRPRPPRLPRPRPRPEHKPRP | -0.00916 |
| RRIRPRPPRLPRPRPRPEHTPRP | -0.112 |
| RRIRPRPPRLPRPRPRPEIFPRP | 0.137 |
| RRIRPRPPRLPRPRPRPELLPRP | 0.14 |
| RRIRPRPPRLPRPRPRPELVPRP | 0.442 |

| Sequence | shrunken log2 fold change |
| --- | --- |
| RRIRPRPPRLPRPRPRPEMTPRP | -0.0182 |
| RRIRPRPPRLPRPRPRPENEPRP | 0.0949 |
| RRIRPRPPRLPRPRPRPEPKPRP | 2.44 |
| RRIRPRPPRLPRPRPRPEQEPRP | 0.278 |
| RRIRPRPPRLPRPRPRPEQTPRP | 0.0268 |
| RRIRPRPPRLPRPRPRPETQPRP | 0.15 |
| RRIRPRPPRLPRPRPRPFEWPRP | -0.124 |
| RRIRPRPPRLPRPRPRPFFCPRP | 0.0262 |
| RRIRPRPPRLPRPRPRPFFIPRP | -0.249 |
| RRIRPRPPRLPRPRPRPFHFPRP | -0.339 |
| RRIRPRPPRLPRPRPRPFHIPRP | -0.161 |
| RRIRPRPPRLPRPRPRPFHTPRP | -0.569 |
| RRIRPRPPRLPRPRPRPFIDPRP | -0.304 |
| RRIRPRPPRLPRPRPRPFILPRP | -0.582 |
| RRIRPRPPRLPRPRPRPFKAPRP | -0.0573 |
| RRIRPRPPRLPRPRPRPFMWPRP | -0.168 |
| RRIRPRPPRLPRPRPRPFNTPRP | 0.39 |
| RRIRPRPPRLPRPRPRPFPWPRP | -0.0429 |
| RRIRPRPPRLPRPRPRPFQSPRP | 0.0035 |
| RRIRPRPPRLPRPRPRPFRYPRP | -0.0865 |
| RRIRPRPPRLPRPRPRPFSAPRP | 0.0672 |
| RRIRPRPPRLPRPRPRPFSVPRP | -0.0603 |
| RRIRPRPPRLPRPRPRPFTQPRP | -0.0301 |
| RRIRPRPPRLPRPRPRPFYHPRP | -0.547 |
| RRIRPRPPRLPRPRPRPFYLPRP | -0.685 |

| Sequence | shrunken log2 fold change |
| --- | --- |
| RRIRPRPPRLPRPRPRPGAGPRP | 0.555 |
| RRIRPRPPRLPRPRPRPGATPRP | 0.54 |
| RRIRPRPPRLPRPRPRPGCIPRP | -0.0111 |
| RRIRPRPPRLPRPRPRPGGWPRP | 0.724 |
| RRIRPRPPRLPRPRPRPGHCPRP | 0.0859 |
| RRIRPRPPRLPRPRPRPGHHPRP | 0.0565 |
| RRIRPRPPRLPRPRPRPGIAPRP | 0.218 |
| RRIRPRPPRLPRPRPRPGISPRP | -0.155 |
| RRIRPRPPRLPRPRPRPGKCPRP | -0.125 |
| RRIRPRPPRLPRPRPRPGKLPRP | -0.4 |
| RRIRPRPPRLPRPRPRPGKQPRP | -0.0793 |
| RRIRPRPPRLPRPRPRPGMCPRP | -0.0873 |
| RRIRPRPPRLPRPRPRPGMRPRP | 0.852 |
| RRIRPRPPRLPRPRPRPGMSPRP | 0.0989 |
| RRIRPRPPRLPRPRPRPGNCPRP | -0.0898 |
| RRIRPRPPRLPRPRPRPGPAPRP | 0.51 |
| RRIRPRPPRLPRPRPRPGPYPRP | -0.0184 |
| RRIRPRPPRLPRPRPRPGQVPRP | 0.11 |
| RRIRPRPPRLPRPRPRPGSNPRP | -0.082 |
| RRIRPRPPRLPRPRPRPGWMPRP | -0.0745 |
| RRIRPRPPRLPRPRPRPGYYPRP | -0.45 |
| RRIRPRPPRLPRPRPRPHASPRP | -0.192 |
| RRIRPRPPRLPRPRPRPHCLPRP | -0.374 |
| RRIRPRPPRLPRPRPRPHCSPRP | -0.0583 |
| RRIRPRPPRLPRPRPRPHDDPRP | -0.421 |
